In assay [1] the target is Ta-V6 (Triticum aestivum L.).
Assay [2] deals with Ta-P7 (Triticum aestivum L.).
The target of assay [3] is Triticain-α (Triticum aestivum L.).

* marks the point of attachment. AMC = Cc1cc(=O)oc2cc(N*)ccc12

B1: acetyl-Pro-Leu-Val-Gln-7-amino-4-methylcoumarin (peptide)
peptide: Ac-PLVQ-{AMC}
SMILES: CC(=O)N1CCC[C@H]1C(=O)N[C@@H](CC(C)C)C(=O)N[C@H](C(=O)N[C@@H](CCC(N)=O)C(=O)Nc1ccc2c(C)cc(=O)oc2c1)C(C)C
For the molecule B1, in assay [1], the KM of Ac-PLVQ-AMC hydrolysis, pH 3.6, 37 °C was found to be 16.4 µM; the KM of Ac-PLVQ-AMC hydrolysis, pH 4.6, 37 °C came out at 20.5 µM; the KM of Ac-PLVQ-AMC hydrolysis, pH 5.6, 37 °C worked out at 22.6 µM; the KM of Ac-PLVQ-AMC hydrolysis, pH 6.5, 37 °C is 26.9 µM. In addition, in assay [1], the KM of Ac-PLVQ-AMC hydrolysis, pH 7.5, 37 °C was determined as 29.2 µM. For the same molecule, in assay [2], the KM of Ac-PLVQ-AMC hydrolysis, pH 3.6, 37 °C was 44.7 µM; the KM of Ac-PLVQ-AMC hydrolysis, pH 4.6, 37 °C was 32.2 µM; the KM of Ac-PLVQ-AMC hydrolysis, pH 5.6, 37 °C stood at 24.5 µM; the KM of Ac-PLVQ-AMC hydrolysis, pH 6.5, 37 °C was 31.4 µM. In assay [2], the KM of Ac-PLVQ-AMC hydrolysis, pH 7.5, 37 °C stood at 35.3 µM. Also, in assay [3], the KM of Ac-PLVQ-AMC hydrolysis, pH 3.6, 37 °C stood at 21.5 µM; the KM of Ac-PLVQ-AMC hydrolysis, pH 4.6, 37 °C worked out at 34.6 µM; the KM of Ac-PLVQ-AMC hydrolysis, pH 5.6, 37 °C is 46 µM; the KM of Ac-PLVQ-AMC hydrolysis, pH 6.5, 37 °C was found to be 49.4 µM. In addition, in assay [3], the KM of Ac-PLVQ-AMC hydrolysis, pH 7.5, 37 °C is 583 µM.

(Values after article PMC12030614.)
